Measurements: patent US20150183839A1, “SOYBEAN NODULATION REGULATORY PEPTIDES AND METHODS OF USE” (priority 2010, published 2015)
“Also recorded” adds a separate entry of the source.

Legend:
[1] = tested on: CLE30, CLE60 and CLE80 gene expression in soybean root; test: RT-qPCR of CLE gene expression in soybean roots after nitrogen source treatment; type: in vivo, Glycine max; details: for expression of CLE30 and CLE80 in roots / CLE60 expression in roots: 10 mM for two weeks; for expression of CLE30 and CLE80 in roots: relative to KCl control; for CLE60 expression in roots: relative to control
Experimental: FIG. 15. To test if CLE60 (GmNIC1) is induced by alternative nitrogen sources we treated soybeans with 10 mM solutions of the following chemicals for two weeks prior to harvesting root tissue to analyse gene expression: Ammonium Chloride (NH4Cl), Potassium Nitrate (KNO3) and Potassium Chloride control (KCl).
(§1) Soybean (Glycine max) lines used include the wild type Williams and its isogenic supernodulating nark mutant lines, nod4 and nod3-7 and the wild type Bragg and its isogenic hypernodulating nark mutant line, nts1116. Plants were grown in controlled glasshouse conditions (28° C./26° C. day/night, 16 hour day) in autoclaved pots and vermiculite where sterile growing conditions were required. Seeds requiring sterilisation were treated with 70% ethanol, 3% H2O2 for 1 min, followed by several rinses with water. Plants were watered as required with a modified nutrient solution lacking nitrogen (Herridge, 1982). Plants were inoculated with approximately OD600 0.01 Bradyrhizobium japonicum CB1809 or the corresponding NF mutant nodU grown in yeast-mannitol broth (YMB) at 28° for two days. For nitrate treatments, plants were watered with the indicated solutions of KNO3 every two days. For grafting experiments, reciprocal grafting was carried out 8 d after sowing and the graft unions were allowed to recover for 6 d before B. japonicum inoculation. Nodulation was scored three weeks after inoculation.
For gene expression analyses, tissue was snap frozen and homogenized in liquid nitrogen using a mortar and pestle. RNA was extracted using TRIzol reagent according to the manufacturer's instructions (Invitrogen). DNAse treatment (Fermentas, Ontario) was performed on 1 μg of RNA in the presence of MgCL2. cDNA was synthesised with SuperScript III (Invitrogen) from 0.5 μg DNAse treated RNA. RT-qPCR was conducted using an ABI 7900HT cycler in 384 well plates with SYBR green fluorescence detection. All reactions were performed in duplicate for at least three biological replicates using intron-spanning primers where possible and a target amplicon of approximately 100 bp (full primer sequences are included in Table 2). Gene expression values were calculated relative to ATP synthase after normalisation for PCR efficiency and plot correlation (R2) values of each primer pair as determined by LinRegPCR 7.5 (Ramakers et al., 2003).
In a preliminary study to determine if nitrate can induce the expression of the soybean CLE genes, root tissue was harvested after treatment with either 0 mM (water control) or 10 mM KNO3 for two weeks. […] A more thorough study to identify the induction of CLE60 expression by nitrate was subsequently performed using, root tissue harvested at 0, 8 or 24 h after the commencement of the above treatments.
Soybean plants were treated with either 0, 2, 5, 10 or 15 mM KNO3 for 2 days prior to, and for 2 weeks following, rhizobia inoculation. The treated plants were then harvested simultaneously for RT-qPCR and nodule count studies.

[2] = tested on: soybean nodulation; test: Nodule numbers of soybean plants treated with KNO3 (incl. grafted plants); type: in vivo, Glycine max
Experimental: as §1
Soybean plants were treated with either 0, 2, 5, 10 or 15 mM KNO3 for 2 days prior to, and for 2 weeks following, rhizobia inoculation. The treated plants were then harvested simultaneously for RT-qPCR and nodule count studies. […]

[3] = tested on: Medicago truncatula nodulation; details: cited from earlier work
[4] = tested on: soybean nodulation; test: Over-expression of CLE genes in transgenic soybean hairy roots, nodule number (Example 1); type: in vivo, Glycine max; details: for NARK/SUNN/HAR1 dependent inhibition / Systemic activity: Glycine max; for nodulation (nodule number) on over-expression: vs vector-only control
Experimental: as §1
The full length CDS of CLE30, CLE60 and CLE80 was directionally cloned into the pKANNIBAL vector for expression of RNAi constructs (Wesley et al., 2001). Pfu polymerase (Stratagene, La Jolla, Calif.) was used to amplify PCR products incorporating restriction nuclease sites from cDNA samples shown to express the target gene. XhoI/EcoRI (for) and KpnI (rev) restriction sites were included in the primer sequences depending on internal restriction sites of each gene (full primer sequences are included in Table 2). Likely clones were confirmed by direct DNA sequencing and capillary separation. Constructs were sub-cloned into p15SRK2 or pM1KCK1 integration vectors (A. Kereszt, unpublished) as a NotI fragment before tri-parental mating to introduce the constructs into Agrobacterium rhizogenes K599. For transgenic root verification in the CLE60 over-expression experiments the DsRed reporter was subcloned into pM1KCK1 from pHairyRed, which is a modified version of pCAMBIA (M-H Lin, P M Gresshoff, B J Ferguson, unpublished). Tri-parental mating was used to introduce DsRed into A. rhizogenes K599 carrying the CLE60 construct. A. rhizogenes were subsequently used for the induction of transgenic soybean hairy roots according to Kereszt et al (2007).
To determine if the soybean CLE peptides regulate nodulation in a NARK-dependent manner, a reverse-genetics approach using a hairy-root transformation system was used. Over-expression of a systemic Q signal would be expected to inhibit nodulation, even in non-transformed roots. To test this, the complete CDS of CLE30, CLE60 or CLE80 was cloned into the pKANNIBAL vector for the expression of efficient RNAi constructs (Wesley et al., 2001). However, to generate over-expressing constructs, the antisense construct was omitted and the Pdk intron of pKANNIBAL was left intact. Previous studies have shown the inclusion of an intron can lead to higher and more consistent expression levels in transgenic plants (Norris et al., 1993).
Tri-parental mating was used to integrate the constructs into Agrobacterium rhizogenes K599 which induces the formation of transgenic hairy roots in soybean (Kereszt et al., 2007).

[5] = tested on: G. max nodulation; test: Overexpression of GmRIC1 in hairy roots of G. max, nodules counted (Example 2); type: in vivo, Glycine max; details: vs empty vector; for nodulation on overexpression: G. max WT (Williams)
Experimental: (§2) Transformation was done using the hairy root method. Agrobacterium rhizogenes containing a vector with the RIC1 gene (CLE30) and 35s promoter was injected into the stems of young plants. Once transgenic ‘hairy roots’ began growing from the stems the primary roots were removed and the plants with the transgenic roots were replanted and inoculated with the appropriate rhizobia strain.
(§3) All plants were grown in and in 30 well seed trays of grade 3 vermiculite. G. soja seeds were scarified and soaked in MQ H2O before planting. All plants were grown in growth cabinets under 16 h day and 8 h night conditions. P. vulgaris and G. max were grown at 28° C. G. soja were grown at 24° C. All plants were fertilised with a no nitrogen fertiliser and B&D solution (Broughton & Dilworth 1971).
(§4) A. rhizogenes K599 with either p15SRK2::GmRIC1 ox or p15SRK2 were grown on LB media (10 g/L Tryptone, 5 g/L Yeast extract, 10 g/L NaCl) for 2 days at 28° C. The bacteria were harvested by scraping it from the agar plate. The harvested bacteria were suspended in 3 mL MQ H2O, ensuring no lumps remained.
(§5) When all plants had unfolded cotyledons they were injected at the hypocotyl as close to the junction of the cotyledons as possible with the A. rhizogenes solutions (Kereszt et al, 2007; Estrada-Navarrete, 2006). Half of each of the WT and mutant lines received A. rhizogenes p15SRK2+GmRIC1 OX and the other half of the plants received A. rhizogenes p15SRK2; Totalling 4 treatment groups.
(§6) The infection technique was the same for all species using A. rhizogenes K599. To increase the likelihood of the K599 producing hairy roots, the A. rhizogenes was inoculated with 1 mL 200 μM acetosyringone one hour prior to harvesting the bacteria. After infection all seed trays were misted with H2O, covered and sealed to ensure high humidity.
Once root tips were visible at the point of infection, the primary roots of the plants were removed and the hairy roots were re-planted. Plants were left in the growth cabinets for one week to form an adequate root system. […] After 2-3 weeks plants were uprooted and the nodules counted.

[6] = tested on: G. soja nodulation; test: Overexpression of GmRIC1 in hairy roots of G. soja, nodules counted; type: in vivo, Glycine soja; details: WT G. soja, vs vector only
Experimental: as §2, §3
as §4, with “remained. […]” for “remained.”
Once root tips were visible at the point of infection, the primary roots of the plants were removed and the hairy roots were re-planted. […] After 2-3 weeks plants were uprooted and the nodules counted.

[7] = tested on: P. vulgaris nodulation; test: Overexpression of GmRIC1 in hairy roots of P. vulgaris, nodules counted; type: in vivo, Phaseolus vulgaris; details: vs vector only
Experimental: as §2, §3, §4, §5, §6
Once root tips were visible at the point of infection, the primary roots of the plants were removed and the hairy roots were re-planted. Plants were left in the growth cabinets for one week to form an adequate root system. The plants were subsequently transferred to the glasshouse and re-potted into larger pots. After re-potting plants were also inoculated with the appropriate strain of rhizobia for that particular species. Plants were watered and fertilised with B&D solution (Broughton & Dilworth 1971). After 2-3 weeks plants were uprooted and the nodules counted.

[8] = nod4 supernodulation nark mutant plants
[9] = wild-type (Williams) soybean, transgenic hairy roots

## O=[N+]([O-])[O-].[K+] [KNO3, Potassium Nitrate]
[1]; 10 mM KNO3 for two weeks vs 0 mM water control
  CLE30 expression in roots: unchanged
[1]
  expression of CLE30 and CLE80 in roots: not that of CLE80 or CLE30
  CLE60 expression in roots: significantly induced expression of CLE60
[1]; 2 days prior to and 2 weeks following rhizobia inoculation
  KNO3 level at which CLE60 was significantly induced (as low as): 2 mM
[2]; 0, 2, 5, 10 or 15 mM KNO3, 2 weeks after inoculation
  nodule numbers with KNO3 concentration: reduced in an inverse manner
[2]; 5 mM or 10 mM KNO3, WT scion, wild-type rootstock compared to nod4 mutant rootstock
  nodule numbers of grafted plants: reduced significantly

## Cl.N [NH4Cl, Ammonium Chloride]
[1]
  expression of CLE30 and CLE80 in roots: did not affect expression
  CLE60 expression in roots: induced expression of CLE60

## CLE12: Medicago truncatula CLE peptide reported to reduce nodulation (Mortier et al., 2010) (LEGGSNIDSQRLLHELMVDRIKQKRSRTDLEDKAVPGDRLSPGGPNHIHN; UniProt G7ZZZ3 32-81, looked up)
[3]
  NARK/SUNN/HAR1 dependent inhibition: partial
  Systemic activity: yes

## CLE13: Medicago truncatula CLE peptide reported to reduce nodulation (Mortier et al., 2010) (LRDHPLIHKNIDSRSLLQKLRIHISNHKQVRDISGDRLSPAGPDPQHNGRSPPRK; UniProt G7JV15 30-84, looked up)
[3]
  NARK/SUNN/HAR1 dependent inhibition: partial
  Systemic activity: yes

B1: CLE60: Glycine max CLE protein, SEQ ID NO:6; nitrate induced CLE acting locally in the root (protein)
chain: MLEALGEMANAKQVLCLILLVLLFSKLESRSLEAFIEGKKTLAKGCSRELIEKSQLLKASFAKATTRFTNPRVSKRLSPGGPDQKHH
modifications: Glycine max
notes: nitrate induced CLE acting locally in the root
[4]
  NARK/SUNN/HAR1 dependent inhibition: yes
  Systemic activity: no
[4]; [8]
  nodulation (nodule number) on over-expression: no corresponding reduction in nodulation; also recorded: nodule numbers were not reduced
[4]; over-expression, wild-type soybean
  reduction in nodulation: ~50%
[4]; [9]
  nodulation (nodule number) on over-expression: only partially reduces nodulation; also recorded: reduced nodulation by approximately half; also recorded: nodules were reduced or partially eliminated

B2: CLE80: Glycine max CLE protein, SEQ ID NO:7; rhizobia inoculation induced CLE (protein)
chain: MGNTSATLVPILALIMFSTFFMTLQARSLHGHNPLFAHKKVVDIQNFLHKSGIHLSKRVRIPFGDDLPLAPADRLAPGGPDPQHNVRAPPRKP
modifications: Glycine max
[4]
  NARK/SUNN/HAR1 dependent inhibition: yes
  Systemic activity: yes
[4]; [8]
  nodulation (nodule number) on over-expression: no reduction in the nodule numbers; also recorded: complete lack of nodule inhibition; also recorded: nodule numbers were not reduced
[4]; [9]
  nodulation (nodule number) on over-expression: completely abolishes soybean nodulation; also recorded: completely eliminated nodulation; also recorded: eliminated nodulation completely; also recorded: nodules were eliminated

B3: CLE30: Glycine max CLAVATA3/ESR-related (CLE) protein, SEQ ID NO:5; rhizobia induced CLE, over-expressed in transgenic hairy roots (protein)
chain: MANATMATRVSILIALIILSTFFMTLQASNLHGHPFIRENNIADSHHFLHKYLDDLSKHIHVQDADDAPHKDGNTHRLAPEGPDPHHNFATPPRN
modifications: Glycine max
notes: rhizobia induced CLE, over-expressed in transgenic hairy roots
[4]
  NARK/SUNN/HAR1 dependent inhibition: yes
  Systemic activity: yes
[4]; [8]
  nodulation (nodule number) on over-expression: no reduction in the nodule numbers; also recorded: complete lack of nodule inhibition; also recorded: nodule numbers were not reduced
[4]; [9]
  nodulation (nodule number) on over-expression: completely abolishes soybean nodulation; also recorded: completely eliminated nodulation; also recorded: eliminated nodulation completely; also recorded: nodules were eliminated
[5]
  nodulation on overexpression: inhibits nodulation
[5]; listed as GmRIC1
  nodulation on overexpression: completely inhibits nodulation
[5]; G. max nod4 lacking functional NARK
  nodule numbers on overexpression: nodule numbers were unchanged
[6]
  nodulation on overexpression: inhibits nodulation
[6]; listed as GmRIC1
  nodulation on overexpression: completely inhibited nodulation; also recorded: complete inhibition of nodulation
[7]; P. vulgaris R32 supernodulation (AON) mutant
  nodulation on overexpression: no effect
[7]; P. vulgaris R32 supernodulation (AON) mutant, listed as GmRIC1
  nodulation on overexpression: no significant effect
[7]; P. vulgaris WT cv. OAC RICO
  nodulation on overexpression: inhibits nodulation
[7]; P. vulgaris WT cv. OAC RICO, listed as GmRIC1
  nodulation on overexpression: inhibition of nodulation
